According to patent US20230227540A1 (ABL BIO, published 2023):
Several values for one entry are separate records, joined by “and”; a condition that tells them apart may be missing. Identical values can stand only once.

Tests used:
[1] = biological target: T1, α-syn aggregate (human, UniProt P37840 1-140); test: BIAcore (SPR), 1:1 binding model (Example 2-3), column Fibrils
Description: Quantitative analysis of the binding of alpha-synuclein antibody prepared in Example 1 to monomer and aggregate antigen was performed using BIAcore analysis.
The used instrument was T200 (GE Healthcare, S / N: 1565888). Protein A is used as a chip (GE Healthcare, Cat. 29-1275-56). 10 mM Glycine-HCl pH 1.5 (GE Healthcare, Cat. BR-1003-54) was regeneration buffer. The running buffer, analyte dilution, and the sample dilution buffer were HBS-EP. The α-syn antibodies (3A9, 9B11 and 11F11) prepared in Example 1 were diluted with 1 x HBS-EP (GE Healthcare, Cat. BR-1006-69), and alpha-synuclein monomer (1 mg/ml) and fibril protein (3 mg / ml) were serially diluted in duplicate and analyzed at 6 concentrations (0, 0.39, 1.56, 6.25, 25, 100 nM) including 0 nM in total. For the capture, the monomer was for RU of 800 (theoretical), and a fibril was for RU of 100 (theoretical). The capture phase was performed at contact time of 60 seconds, a flow rate of 30 µl / min, and a stabilization period of 180 seconds. The association phase was performed at the association time of 120 seconds and the flow rate was 30 µl/min. The dissociation phase was performed at the dissociation time of 360 seconds and the flow rate of 30 µl/min. The regeneration phase was performed twice time at the regeneration time of 240 seconds (primary) and 60 seconds (secondary) and a flow rate of 30 µl/min. The fitting was carried out suing 1: 1 binding model, and the evaluation software was BIACore T200 Evaluation software (GE healthcare).

[2] = biological target: T1, α-syn aggregate; test: Octet (BLI), α-syn aggregate (Example 2-6)
Description: Specifically, the running buffer was 1 x KB buffer (cat. 18-1092) or 1 x PBS buffer at 1000 rpm, and the immobilization buffer was sodium acetate, pH 5 (10 mM, Cat 18-1068. α-syn monomers was immobilized the α-syn antigen, and fibrils was immobilized the test antibody. The target concentrations were 20 µg/ml for the monomer and 0.4 µg/ml for the fibril. The kinetics concentration was diluted sequentially two times from 50 nM for monomers and from 100 nM for fibrils, to give 7 points in total, respectively. Association/dissociation time was 5 min / 20 min for monomer and 5 min / 25 min for fibril. Biosensor was ARG2 and fitting was performed using 1: 1 fitting model.
Octet analysis was performed as described in Examples 2-4 using the ScFV anti-Syn antibodies selected in Example 1-2.

[3] = biological target: T1, α-syn aggregate; test: ELISA (Example 2-2), column Fibrils
Description: ELISA analysis was performed to quantitatively analyze the binding affinity of the antibody of the present invention to the antigen. For this, alpha-synuclein antibody of the present invention was coated on a 96-well plate at a concentration of 1 mg/ml and treated with alpha, synuclein fibril aggregates at 10, 100, 1000 and 10,000 ng/ml. After washing with PBS, streptavidin conjugated with HRP and secondary antibody conjugate with biotin was treated and then reacted with TMB as a substrate. The absorbance was measured.

[4] = biological target: α-syn monomer (human, UniProt P37840 1-140); test: ELISA (Example 2-2), column Monomers

Binder | Kd [1] [nM] | Kd [2] [nM] | EC50 [3] | EC50 [4]
3A9 (antibody, V domains shown, Only the variable domains are tied to the clone as tested; also called mouse monoclonal anti α-Syn antibody 3A9) VH: EVQLQESGGGLVKPGGSLKLSCAASGFTFSSYAMSWVRQTPEKRLEWVATISNGGGYTYYPDSVKGRFTISRDNAKNTLYLQMSSLRSEDTAMYYCARHITTVRPTKYFDYWGQGTTLTVSS VL: DIVMTQSPKFMSTSVGDRVSITCKASQNVGTTVAWYQQKPGQSPKLLIYSASNRYTGVPDRFTGSGSGTDFTLTISNMQSEDLADYFCQQYSNYPLTFGAGTKLELR | 1.32 | 0.13 | 0.319 µg/mL and 2.13 nM | –
DG5 (scFv, V domains shown, Clone from a human scFv phage library; also called ScFV anti α-Syn antibody DG5) VH: EVQLLESGGGLVQPGGSLRLSCAASGFTFSNYAMSWVRQAPGKGLEWVSVISPGSGNTYYADSVKGRFTISRDNSKNTLYLQMNSLRAEDTAVYYCARVTIACPTKRCSYSNGMDVWGQGTLVTVSS VL: not shown | – | 1.26 | – | –
11F11 (antibody, IgG2b, V domains shown, Only the variable domains are tied to the clone as tested; also called mouse monoclonal anti α-Syn antibody 11F11) VH: EVQLQESGGGLVQPGGSLRLSCATSGFTFSDFYMEWVRQPPGKRLEWIAASRNKANDYTTEYSASVKGRFIVSRDTSQSILYLQMNALRAEDTAIYYCARDAHGKPFAYWGQGTLVTVSA VL: not shown | 2.87 | 0.16 | 0.327 µg/mL and 2.18 nM | –
AC8 (scFv, V domains shown, Clone from a human scFv phage library; The screen used soluble HA-tagged scFv; The dot blot was detected with anti-human Fc-HRP, so an Fc-bearing format may have been used there; also called ScFV anti α-Syn antibody AC8) VH: EVQLLESGGGLVQPGGSLRLSCAASGFTFSDYSMSWVRQAPGKGLEWVSGISSGGSSKYYADSVKGRFTISRDNSKNTLYLQMNSLRAEDTAVYYCAKIFHNFDYWGQGTLVTVSS VL: QSVLTQPPSASGTPGQRVTISCSGSSSNIGSNNVYWYQQLPGTAPKLLIYYDSQRPSGVPDRFSGSKSGTSASLAISGLRSEDEADYYCASWDASLSAYVFGGGTKLTVLG | – | 0.24 | – | –
DG8 (scFv, V domains shown, Clone from a human scFv phage library; also called ScFV anti α-Syn antibody DG8) VH: EVQLLESGGGLVQPGGSLRLSCAASGFTFSDHAMSWVRQAPGKGLEWVSVISHGNGSKYYADSVKGRFTISRDNSKNTLYLQMNSLRAEDTAVYYCARVASRCRRGRCSYSDGMDVWGQGTLVTVSS VL: QSVLTQPPSASGTPGQRVTISCSGSSSNIGSNSVSWYQQLPGTAPKLLIYANNNRPSGVPDRFSGSKSGTSASLAISGLRSEDEADYYCGAWDSSLSAYVFGGGTKLTVLG | – | 3.8 | – | –
DA9 (scFv, V domains shown, Clone from a human scFv phage library; also called ScFV anti α-Syn antibody DA9) VH: EVQLLESGGGLVQPGGSLRLSCAASGFTFSNYAMSWVRQAPGKGLEWVSVISPSDSNTYYADSVKGRFTISRDNSKNTLYLQMNSLRAEDTAVYYCARVTLSCRASRCSYSNGMDVWGQGTLVTVSS VL: QSVLTQPPSASGTPGQRVTISCSGSPSNIGNNSVSWYQQLPGTAPKLLIYANSHRPSGVPDRFSGSKSGTSASLAISGLRSEDEADYYCGSWDASLNGYVFGGGTKLTVLG | – | 4.31 | – | –
AD2 (scFv, V domains shown, Clone from a human scFv phage library; also called ScFV anti α-Syn antibody AD2) VH: EVQLLESGGGLVQPGGSLRLSCAASGFTFSNYAMSWVRQAPGKGLEWVSAISHSGSSKYYADSVKGRFTISRDNSKNTLYLQMNSLRAEDTAVYYCARSGNNFDYWGQGTLVTVSS VL: QSVLTQPPSASGTPGQRVTISCTGSSSNIGNNSVSWYQQLPGTAPKLLIYSDNNRPSGVPDRFSGSKSGTSASLAISGLRSEDEADYYCGSWDASLSGYVFGGGTKLTVLG | – | 1.67 | – | –
DG11 (scFv, V domains shown, Clone from a human scFv phage library; also called ScFV anti α-Syn antibody DG11) VH: EVQLLESGGGLVQPGGSLRLSCAASGFTFSDYAMSWVRQAPGKGLEWVSVISPGSGSKYYADSVKGRFTISRDNSKNTLYLQMNSLRAEDTAVYYCAKVTISCARMRCSYADGMDVWGQGTLVTVSS VL: QSVLTQPPSASGTPGQRVTISCTGSSSNIGSNSVSWYQQLPGTAPKLLIYANSNRPSGVPDRFSGSKSGTSASLAISGLRSEDEADYYCAAWDASLSAYVFGGGTKLTVLG | – | 2.66 | – | –
AE8 (scFv, V domains shown, Clone from a human scFv phage library; also called ScFV anti α-Syn antibody AE8) VH: EVQLLESGGGLVQPGGSLRLSCAASGFTFSNYAMSWVRQAPGKGLEWVSAISSGGGNIYYADSVKGRFTISRDNSKNTLYLQMNSLRAEDTAVYYCARRPLYFDYWGQGTLVTVSS VL: QSVLTQPPSASGTPGQRVTISCSGSSSNIGNNSVNWYQQLPGTAPKLLIYANNNRPSGVPDRFSGSKSGTSASLAISGLRSEDEADYYCGSWDASLNGYVFGGGTKLTVLG | – | 0.39 | – | –
AA9 (scFv, V domains shown, Clone from a human scFv phage library; also called ScFV anti α-Syn antibody AA9) VH: EVQLLESGGGLVQPGGSLRLSCAASGFTFSSYSMSWVRQAPGKGLEWVSAIYPGSSNKYYADSVKGRFTISRDNSKNTLYLQMNSLRAEDTAVYYCARHAATFDYWGQGTLVTVSS VL: QSVLTQPPSASGTPGQRVTISCSGSSSNIGSNYVSWYQQLPGTAPKLLIYGDNKRPSGVPDRFSGSKSGTSASLAISGLRSEDEADYYCGAWDDSLSGYVFGGGTKLTVLG | – | 0.88 | – | –
AD7 (scFv, V domains shown, Clone from a human scFv phage library; also called ScFV anti α-Syn antibody AD7) VH: EVQLLESGGGLVQPGGSLRLSCAASGFTFSGYAMSWVRQAPGKGLEWVSAISPNGGNKYYADSVKGRFTISRDNSKNTLYLQMNSLRAEDTAVYYCARRPVYFDYWGQGTLVTVSS VL: not shown | – | 0.17 | – | –
1E4 (antibody, V domains shown, Antibody purified from a mouse hybridoma, raised against the full-length (140 residues) α-Syn aggregate; Only the variable domains are tied to the clone as tested; also called mouse monoclonal anti α-Syn antibody 1E4) VH: EVQLQESGAELVRPGTSVKVSCKASGYAFTNYLIEWVKQRPGQGLEWIGVINPGSGGTNYNEKFKGKATLTADKSSSTAYMQLSSLTSDDSAVYFCASGNYDTYWGQGTLVTVSA VL: DIVMTQSPLSLPVSLGDQASISCRSSQSLVHSNGNTYLHWYLQKPGQSPKLLIYKVSNRFSGVPDRFSGSGSGTDFTLKISRVEAEDLGVYFCSQSTHVPRTFGGGTKLEIK | – | 0.18 | 0.0245 µg/mL and 0.163 nM | –
9B11 (antibody, V domains shown, Antibody purified from a mouse hybridoma, raised against the full-length α-Syn aggregate; Only the variable domains are tied to the clone as tested; also called mouse monoclonal anti α-Syn antibody 9B11) VH: EVQLQESGGGLVQPKGSLKLSCAASGFTFNTYAMNWVRQAPGKGLEWVARIRSKSNNYATYYADSVKDRFTISRDDSQSMLYLQMNNLKTEDTAMYYCVRQDFDYWGQGTTLTVSS VL: DIVMTQSPLSLPVSLGDQASISCRSSQSLVHSNGNTYLHWYLQKPGQSPKLLIYKVSNRFSGVPDRFSGSGSGTDFTLKISRVEAEDLGVYFCSQSTHVPLTFGAGTKLEQK | 0.904 | 0.018 | 0.185 µg/mL and 1.23 nM | –
10F10 (antibody, IgG2a, V domains shown, Only the variable domains are tied to the clone as tested; also called mouse monoclonal anti α-Syn antibody 10F10) VH: EVQLQESGPGLVKPSQSLSLTCSVTGYSITGGFYWNWIRQFPGNNLEWMGYINYDGSSDYSPSLKNRISITRDTSKNQFFLNLNSVTTEDTATYYCVRGDYDWGQGTTLTVSS VL: not shown | – | 0.81 | 0.087 nM and 0.0131 µg/mL | 0.0233 µg/mL and 0.155 nM
